Data published in patent US20260078197A1 (BIOCYTOGEN PHARMACEUTICALS BEIJING, published 2026).

T1: Macaca fascicularis (crab-eating macaque) TFR1 expressed on CHO-S cells (Macaca fascicularis (crab-eating …))
T1 construct: CHO-S cells transfected with a vector expressing fasTFR1; also called fasTFR1; CHO-S-fasTFR1 cells
T1 chain: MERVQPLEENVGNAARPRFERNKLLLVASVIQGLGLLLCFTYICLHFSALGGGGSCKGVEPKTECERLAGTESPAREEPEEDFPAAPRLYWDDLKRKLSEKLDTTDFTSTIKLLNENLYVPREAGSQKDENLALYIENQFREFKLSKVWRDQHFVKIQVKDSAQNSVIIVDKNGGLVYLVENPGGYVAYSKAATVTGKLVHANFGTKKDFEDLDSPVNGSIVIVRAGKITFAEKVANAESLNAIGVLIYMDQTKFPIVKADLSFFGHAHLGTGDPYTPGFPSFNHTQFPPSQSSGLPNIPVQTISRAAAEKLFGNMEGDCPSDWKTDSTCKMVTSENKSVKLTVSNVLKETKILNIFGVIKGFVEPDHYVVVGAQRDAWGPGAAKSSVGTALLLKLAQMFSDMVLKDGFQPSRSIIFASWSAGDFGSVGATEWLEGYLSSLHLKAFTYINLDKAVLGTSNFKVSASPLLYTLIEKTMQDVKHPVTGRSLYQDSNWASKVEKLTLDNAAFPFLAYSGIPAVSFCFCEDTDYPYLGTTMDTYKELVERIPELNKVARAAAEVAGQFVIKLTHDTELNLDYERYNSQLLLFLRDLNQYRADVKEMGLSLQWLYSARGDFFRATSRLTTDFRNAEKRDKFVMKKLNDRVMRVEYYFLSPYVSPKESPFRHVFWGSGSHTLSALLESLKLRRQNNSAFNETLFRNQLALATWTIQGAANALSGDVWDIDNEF

T2: His-tagged monkey TFR1 protein (monkey (Macaca fascicularis))
T2 construct: Bought protein; The order of the tag and the receptor part is not known; also called fasTFR1-His; ACROBiosystems Cat #: TFR-C524a; not shown: His tag
T2 chain: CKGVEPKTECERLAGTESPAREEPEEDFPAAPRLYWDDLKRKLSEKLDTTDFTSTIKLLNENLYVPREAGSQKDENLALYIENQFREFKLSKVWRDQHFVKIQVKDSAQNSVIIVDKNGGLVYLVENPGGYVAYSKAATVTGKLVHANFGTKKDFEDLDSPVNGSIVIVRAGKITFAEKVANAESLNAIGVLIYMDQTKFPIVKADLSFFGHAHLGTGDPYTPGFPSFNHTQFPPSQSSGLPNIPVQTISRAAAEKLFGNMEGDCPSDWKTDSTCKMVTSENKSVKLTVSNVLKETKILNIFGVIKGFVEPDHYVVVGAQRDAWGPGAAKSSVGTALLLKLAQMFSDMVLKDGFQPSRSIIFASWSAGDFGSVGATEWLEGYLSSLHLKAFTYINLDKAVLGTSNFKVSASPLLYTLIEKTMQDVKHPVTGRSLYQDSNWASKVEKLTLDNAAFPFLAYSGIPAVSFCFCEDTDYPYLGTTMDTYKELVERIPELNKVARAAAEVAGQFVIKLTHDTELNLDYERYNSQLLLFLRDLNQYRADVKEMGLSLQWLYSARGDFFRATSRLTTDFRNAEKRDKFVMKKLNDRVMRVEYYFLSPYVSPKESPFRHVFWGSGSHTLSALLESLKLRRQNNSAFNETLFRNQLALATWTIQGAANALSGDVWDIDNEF


Assays:
[1] = target: T1, Macaca fascicularis (crab-eating …); test: flow cytometry on CHO-S-fasTFR1 cells; anti-hIgG-Fc Alexa Fluor 647 secondary
Protocol: (§1) CHO-S-hTFR1 cells or CHO-S-fasTFR1 cells were transferred to a 96-well plate at a density of 10⁵ cells/well respectively. Serially diluted sample anti-TFR1 antibodies were added to the 96-well plate, and incubated at 4° C. for 30 minutes. PBS was used as a negative control (NC).

[2] = target: T3, His-tagged human TFR1 (transferrin receptor 1) protein (human, UniProt P02786 89-760); test: BLI (Octet) binning; hTFR1-His captured on HIS1K; ratio = binding of analyte 2 / binding of analyte 1; competitor (analyte 1, bound first): 24A1
T3 construct: Bought protein; The order of the tag and the receptor part is not known; also called hTFR1-His; ACROBiosystems Cat #: CD1-H5243; not shown: His tag
Protocol: (§2) Relative positions of target protein epitope between a pair of purified anti-TFR1 antibodies were analyzed by Biolayer Interferometry (BLI) using ForteBio Octet system at 30° C. 1×HBS-EP+ buffer (10 mM 4-(2-hydroxyethyl)-1-piperazineethanesulfonic acid (HEPES), 150 mM NaCl, 3 mM ethylenediaminetetraacetic acid (EDTA) and 0.05% P20, pH7.4) diluted from HBS-EP+ buffer (10×) was used as the running buffer throughout the experiment. About 10 μg/mL of hTFR1-His protein was captured by HIS1K (Anti-Penta-HIS) for 200 seconds, and 200 nM of antibody (analyte 1) was injected at a flow rate of 30 μL/min to bind the ligand. Another antibody (analyte 2) was injected under the same conditions to determine whether the binding of different antibodies interfered with each other. The binding time was 300 seconds for each antibody.
(§3) The binding value of each antibody was obtained using Data Analysis HT 12.0. To quantify the interference of one antibody binding to another, a binding ratio was calculated to compare each pair of antibodies. The binding ratio is defined as the binding value of the second antibody (analyte 2), divided by the binding value of the first antibody (analyte 1).

[3] = target: T3, His-tagged human TFR1 (transferrin …); test: BLI (Octet) binning; hTFR1-His captured on HIS1K; ratio = binding of analyte 2 / binding of analyte 1; competitor (analyte 1, bound first): 23B8
Protocol: as §2, §3

[4] = target: T3, His-tagged human TFR1 (transferrin …); test: BLI (Octet) binning; hTFR1-His captured on HIS1K; ratio = binding of analyte 2 / binding of analyte 1; competitor (analyte 1, bound first): 24G5
Protocol: as §2, §3

[5] = target: T4, human TFR1 expressed on CHO-S cells (human, UniProt P02786 1-760); test: flow cytometry on CHO-S-hTFR1 cells; anti-hIgG-Fc Alexa Fluor 647 secondary
T4 construct: CHO-S cells transfected with a vector expressing human TFR1; also called hTFR1; CHO-S-hTFR1 cells
Protocol: as §1

[6] = target: T3, His-tagged human TFR1 (transferrin …); test: BLI (Octet) binning; hTFR1-His captured on HIS1K; ratio = binding of analyte 2 / binding of analyte 1; competitor (analyte 1, bound first): JR141-N
Protocol: as §2, §3

[7] = target: T3, His-tagged human TFR1 (transferrin …); test: BLI (Octet) binning; hTFR1-His captured on HIS1K; ratio = binding of analyte 2 / binding of analyte 1; competitor (analyte 1, bound first): 24C9
Protocol: as §2, §3

[8] = target: T3, His-tagged human TFR1 (transferrin …); test: SPR, Biacore 8K; antibody captured on Protein A chip, hTFR1-His as analyte; 1:1 Langmuir fit
Protocol: (§4) Purified anti-TFR1 antibodies was captured on the Protein A chip (Series S Sensor Chip Protein A) for the detection. Purified anti-TFR1 antibodies (1 μg/mL) was loaded at 10 μL/min to bind to hTFR1-His and fasTFR1-His (200 nM). The flow rate was 30 μL/min. The binding and dissociation time were set to 180 seconds and 600 seconds, respectively. The chip was regenerated after the last injection of each titration with a glycine solution (pH 2.0) at […] for 30 seconds.
(§5) As a person of ordinary skill in the art would understand, the same method with appropriate adjustments for parameters (e.g., antibody concentration) was performed for each tested antibody.

[9] = target: T2, His-tagged monkey TFR1 protein; test: SPR, Biacore 8K; antibody captured on Protein A chip, fasTFR1-His as analyte; 1:1 Langmuir fit
Protocol: as §4, §5

T3 sequence (P02786 89-760 limits assumed): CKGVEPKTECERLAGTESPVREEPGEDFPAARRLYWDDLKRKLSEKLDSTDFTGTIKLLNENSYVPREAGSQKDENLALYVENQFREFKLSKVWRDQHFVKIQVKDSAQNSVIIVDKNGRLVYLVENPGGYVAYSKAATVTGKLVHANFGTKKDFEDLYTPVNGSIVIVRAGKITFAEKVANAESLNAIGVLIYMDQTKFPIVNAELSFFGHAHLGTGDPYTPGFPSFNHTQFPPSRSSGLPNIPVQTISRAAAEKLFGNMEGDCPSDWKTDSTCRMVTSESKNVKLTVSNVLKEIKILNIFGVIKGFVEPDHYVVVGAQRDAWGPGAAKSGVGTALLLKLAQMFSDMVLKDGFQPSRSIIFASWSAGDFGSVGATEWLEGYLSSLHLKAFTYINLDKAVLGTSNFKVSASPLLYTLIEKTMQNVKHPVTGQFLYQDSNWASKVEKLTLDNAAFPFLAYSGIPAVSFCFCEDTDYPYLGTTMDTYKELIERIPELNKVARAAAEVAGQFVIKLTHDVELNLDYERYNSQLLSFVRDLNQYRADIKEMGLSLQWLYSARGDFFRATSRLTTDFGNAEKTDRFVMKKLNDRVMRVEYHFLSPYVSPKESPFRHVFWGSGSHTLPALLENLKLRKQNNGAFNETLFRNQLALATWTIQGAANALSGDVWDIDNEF
T4 sequence (P02786 whole entry): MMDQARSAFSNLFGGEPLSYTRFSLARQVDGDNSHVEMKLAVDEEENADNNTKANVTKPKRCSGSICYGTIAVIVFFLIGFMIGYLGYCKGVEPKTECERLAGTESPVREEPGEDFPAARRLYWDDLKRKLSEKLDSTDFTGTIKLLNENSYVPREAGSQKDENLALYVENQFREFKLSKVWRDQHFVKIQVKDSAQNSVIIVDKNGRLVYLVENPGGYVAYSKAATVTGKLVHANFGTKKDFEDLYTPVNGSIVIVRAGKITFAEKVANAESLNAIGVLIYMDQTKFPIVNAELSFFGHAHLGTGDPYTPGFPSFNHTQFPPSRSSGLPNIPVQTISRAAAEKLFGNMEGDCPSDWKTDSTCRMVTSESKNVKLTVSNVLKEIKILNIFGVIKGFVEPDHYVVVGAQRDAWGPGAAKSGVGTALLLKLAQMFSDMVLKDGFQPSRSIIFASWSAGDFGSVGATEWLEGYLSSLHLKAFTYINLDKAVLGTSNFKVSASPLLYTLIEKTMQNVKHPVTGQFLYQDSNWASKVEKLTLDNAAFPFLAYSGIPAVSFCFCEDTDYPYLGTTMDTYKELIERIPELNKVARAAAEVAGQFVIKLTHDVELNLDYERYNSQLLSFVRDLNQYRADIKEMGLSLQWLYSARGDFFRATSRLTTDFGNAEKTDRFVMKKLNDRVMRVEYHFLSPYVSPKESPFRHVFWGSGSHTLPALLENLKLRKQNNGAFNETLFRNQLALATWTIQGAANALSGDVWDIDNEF

| Binder | Percentage of Positive Cells [1] | binding ratio [2] | binding ratio [3] | binding ratio [4] | Percentage of Positive Cells [5] | binding ratio [6] | binding ratio [7] | Kd [8] | koff [8] | kon [8] | Kd [9] | koff [9] | kon [9] |
| --- | --- | --- | --- | --- | --- | --- | --- | --- | --- | --- | --- | --- | --- |
| JR141-N (antibody, V domains shown, also called positive control; JR141 VH and VL on human IgG1 N297A) VH: EVQLVQSGAEVKKPGESLKISCKGSGYSFTNYWLGWVRQMPGKGLEWMGDIYPGGDYPTYSEKFKVQVTISADKSISTAYLQWSSLKASDTAMYYCARSGNYDEVAYWGQGTLVTVSS VL: DIVMTQTPLSLSVTPGQPASISCRSSQSLVHSNGNTYLHWYLQKPGQSPQLLIYKVSNRFSGVPDRFSGSGSGTDFTLKISRVEAEDVGVYYCSQSTHVPWTFGQGTKVEIK | 37.2% | 0 | 0.7 | 0 | 45% | 0 | 1.1 | – | – | – | – | – | – |
| 23B8 (antibody, V domains shown, Heavy-chain antibody without light chain; also called anti-TFR1 antibody 23B8) VH: QVTLKESGGGLVKPGGSLRLSCAASGFPFSNAWMNWVRQAPGKGLEWVGHIKSKTDGGTTDYAAPVKGRFTISRDDSKNMVFLQMNSLKTEDTAVYYCTTDRAYCGGDCSHYYYHDLDVWGQGTTVTVSS | 39.6% | 0.2 | 0.1 | 0.3 | 38.8% | 1.1 | 1.4 | 8.73 nM | 0.000132 s⁻¹ | 15100 M⁻¹ s⁻¹ | 19.5 nM | 0.00799 s⁻¹ | 410000 M⁻¹ s⁻¹ |
| 24A1 (antibody, human IgG1, V domains shown, Heavy-chain antibody without light chain; also called anti-TFR1 antibody 24A1) VH: EVQLVESGGGLVQPGGSLRLTCAASGFTFSSYAMSWVRQAPGKGLERVSEISGSGSSTNYADSVKGRFTISRDNSKNTLYLQMNSLRAEDTAVYYCAKDDSSGWAFNIWDQGTVVTVSS | 50.9% | 0.1 | 0 | 0.1 | 56.4% | 0.3 | 0.1 | 2.93 nM | 7.68e-05 s⁻¹ | 26200 M⁻¹ s⁻¹ | 2.32 nM | 0.000101 s⁻¹ | 43600 M⁻¹ s⁻¹ |
| 24G5 (antibody, human IgG1, V domains shown, Heavy-chain antibody without light chain; also called anti-TFR1 antibody 24G5) VH: QLQLQESGGGLVQPGGSLRLTCAASGFTFSSFAMSWVRQAPGKGLERVSEISDSGGNTYYADSVKGRFTISRDNSKNTLYLQMNSLRAEDTAVYYCAKDDSSGWAFNIWDQGTVVTVSS | 51.2% | 0 | 0 | 0 | 54.3% | 0.2 | 0 | 2.05 nM | 8.68e-05 s⁻¹ | 42400 M⁻¹ s⁻¹ | 1.39 nM | 8.79e-05 s⁻¹ | 63300 M⁻¹ s⁻¹ |
| 24C9 (antibody, human IgG1, V domains shown, Heavy-chain antibody without light chain; also called anti-TFR1 antibody 24C9) VH: EVQLVQSGGGVVQPGRSLRLSCAASGFTLSSYGMYWVRQAPGKGREWVAFIRFDESKKYYADSVKGRFTISRDNSKNTLYLQMNSLRAEDTAVYYCARDGEGGYCTNGVCHGLDVWGQGTTVTVSS | – | 0.1 | 0.6 | 0.2 | 45.8% | 0.8 | 0 | 14.3 nM | 0.000383 s⁻¹ | 26800 M⁻¹ s⁻¹ | – | – | – |
